# Results published in the supplement of paper PMC10724198.
# ± gives the standard deviation of the averaged measurements.
# Test system: Saccharomyces cerevisiae
# Assay: protein stability index of tFT-peptide fusion (C-terminal peptide) (PSI (0-1 scale)); higher = more stable (slower turnover)
# Conditions: genetic background: wild type; temperature: 30 C
# Protocol: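 Multiplexed protein stability (MPS) profiling in S. cerevisiae. Random 12-aa peptides (tFT-X12 library) are fused to the C-terminus of a sfGFP-mCherry tandem fluorescent timer, after mCherry and a GGGS linker. Cells are FACS-sorted into 8 mCherry/sfGFP bins and deep-sequenced. The protein stability index (PSI) is the read-weighted bin average, scaled from 0 (unstable) to 1 (stable). Only peptides with >10 reads are reported; cells were grown at 30 °C in SC-His with glucose.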
# 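Further: PSI is a weighted mean of sequencing reads over stability bins, variants kept only with over 10 reads, mCherry proximal and sfGFP distal, peptide attached via GGGS linker.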
row,Sequence,protein stability index
1,AAASWRVRIGRG,0.7425 ± 0.004
2,AAFERRDPDLKV,0.766 ± 0.062
3,AAIPPPLHTWRY,0.722 ± 0.054
4,AANRCSVLPLGF,0.601 ± 0.041
5,AAPPPAPPPPPR,0.694 ± 0.0082
6,AAPSPHPLNSLS,0.687 ± 0.036
7,AAQHNSLRGGPP,0.731 ± 0.036
8,AASPRDPQKDHA,0.711 ± 0.057
9,AAVSRPLPLGPP,0.693 ± 0.075
10,AAYGCSGGEVGW,0.68 ± 0.025
11,ACDFCIPGVRLD,0.745 ± 0.022
12,ACDGIRRPVRGG,0.697 ± 0.059
13,ACEAERRTFRWV,0.66 ± 0.012
14,ACGGVWASGRGG,0.705 ± 0.017
15,ACGLVSTSWYGA,0.713 ± 0.086
16,ACLCFIEFRCLL,0.547 ± 0.017
17,ACLWRLSWVLGK,0.641 ± 0.037
18,ACLYDSMSVSSK,0.6386 ± 0.0012
19,ACSPGHCTTGTS,0.649 ± 0.021
20,ACTWASSSLARG,0.735 ± 0.027
21,ACVGGGGMKVLG,0.713 ± 0.065
22,ADLEQTWRYRLD,0.674 ± 0.031
23,ADSVVAGKGASV,0.686 ± 0.031
24,ADTIKRTKRSYP,0.643 ± 0.1
25,AECMLGLFSGVL,0.73 ± 0.033

row,Sequence,protein stability index
1,AEFSLFRPHSAA,0.649 ± 0.11
2,AEGPAGNRGLGG,0.6564 ± 0.0058
3,AEHSIFQLFPKD,0.7034 ± 0.002
4,AELPPETKRLTR,0.626 ± 0.04
5,AERCCLHPPIPA,0.541 ± 0.033
6,AFFLVLSAFRWI,0.541 ± 0.091
7,AFFRPGISRPYG,0.71 ± 0.0072
8,AFFSFLFSNSFL,0.664 ± 0.0082
9,AFFYLRGQESLL,0.688 ± 0.077
10,AFHFFLIPHSFF,0.639 ± 0.025
11,AFICGWSVGFGW,0.697 ± 0.0072
12,AFLLAVIRSSCV,0.55 ± 0.031
13,AFNPLPPFPLGF,0.706 ± 0.034
14,AGAIWGGDSGVG,0.607 ± 0.047
15,AGAWGREVVGWG,0.708 ± 0.033
16,AGEGGRKGGGSR,0.676 ± 0.014
17,AGGAVGEAGSEG,0.6939 ± 0.0027
18,AGGGNGGGGGEK,0.663 ± 0.019
19,AGGKRGGDGRWQ,0.668 ± 0.014
20,AGGLCLGGVGLG,0.674 ± 0.079
21,AGGLHRSRPCVD,0.709 ± 0.024
22,AGGSGGEAGSEG,0.655 ± 0.043
23,AGGWVGAEGCGG,0.763 ± 0.024
24,AGHGTHSNSPFA,0.693 ± 0.074
25,AGLGWGARQGAL,0.67 ± 0.019

row,Sequence,protein stability index
1,AGLVPSSLQSVS,0.695 ± 0.019
2,AGPGMARERYFY,0.634 ± 0.046
3,AGPPPERDPGAS,0.684 ± 0.069
4,AGPWMESPTKSC,0.702 ± 0.023
5,AGQGGWREAGGG,0.676 ± 0.027
6,AGRAVAAAVRED,0.728 ± 0.076
7,AGRGRHPRSTWR,0.688 ± 0.053
8,AGRSAHMEVRHE,0.712 ± 0.047
9,AGTCVSVGVHRY,0.599 ± 0.051
10,AGVRFLVIPRPP,0.7182 ± 0.004
11,AGVVCGGGWWWA,0.772 ± 0.12
12,AGWPAGARARAP,0.712 ± 0.016
13,AHFSRRCKGLFG,0.741 ± 0.01
14,AHQGSENRNMSV,0.688 ± 0.043
15,AIFAPPFPPTPV,0.69 ± 0.071
16,AILFGSSSWVVV,0.659 ± 0.032
17,AIRPPLPPPTPL,0.674 ± 0.046
18,AIRSSRMPLGSA,0.668 ± 0.07
19,AISAGRTFVEVV,0.657 ± 0.067
20,AKKKHHKYRRNG,0.6542 ± 0.0048
21,AKLDMARGGGVV,0.645 ± 0.018
22,AKYNISTMTGHT,0.695 ± 0.024
23,ALCVPRTGPFFI,0.737 ± 0.02
24,ALHYEVVGRGYL,0.679 ± 0.036
25,ALLGIAGGQAAQ,0.714 ± 0.028

row,Sequence,protein stability index
1,ALLPFLTPLLSR,0.561 ± 0.054
2,ALLPLPPSPSLL,0.719 ± 0.0097
3,ALLPPPRPLPHP,0.719 ± 0.014
4,ALLTWIFTCIHI,0.571 ± 0.039
5,ALPAGLRDLPRP,0.586 ± 0.025
6,ALPCLSPVLPFL,0.729 ± 0.014
7,ALPPPPPPSPLL,0.642 ± 0.035
8,ALPPSPLLPTLP,0.702 ± 0.062
9,ALSELSIDISHI,0.632 ± 0.067
10,ALSFFGSCCLPF,0.748 ± 0.014
11,ALSGSFVSWLGG,0.689 ± 0.061
12,ALSLPFERVRDT,0.692 ± 0.022
13,ALTALQTFRITL,0.638 ± 0.014
14,ALWGHSWHSSLR,0.713 ± 0.015
15,AMAMSSGQCFSS,0.67674 ± 0.00043
16,AMSSVRCRLWPM,0.761 ± 0.034
17,ANECYAEDREIR,0.69 ± 0.027
18,ANQKRTKQQHRR,0.722 ± 0.01
19,ANRLNASYQVSD,0.6982 ± 0.0038
20,APCRSLLADLAL,0.736 ± 0.036
21,APDLAVWNLGPH,0.68899 ± 0.00041
22,APFLDRSSPRSF,0.707 ± 0.15
23,APKCRRRNSSGL,0.68 ± 0.057
24,APKPPPPPPPLP,0.709 ± 0.02
25,APLPPLRPPPSA,0.687 ± 0.043

row,Sequence,protein stability index
1,APNAGPPTRSHR,0.737 ± 0.086
2,APNGTPPLSLAS,0.646 ± 0.017
3,APPARSPPPPRP,0.7216 ± 0.0026
4,APPFRYLNSVSC,0.66 ± 0.034
5,APPPALHPPPPH,0.688 ± 0.054
6,APPPLPPLPPSP,0.727 ± 0.2
7,APPPPGPLPPPS,0.698 ± 0.025
8,APPPPPPLLLSF,0.626 ± 0.038
9,APPPPPPPPRPL,0.642 ± 0.041
10,APPPPQSRASSP,0.7379 ± 0.0052
11,APPPPSLPVPST,0.739 ± 0.015
12,APPPSVCPRFPI,0.796 ± 0.012
13,APRFLGLLCPLL,0.655 ± 0.0089
14,APRIILTCRSLT,0.5 ± 0.1
15,APRLRRHPPHEP,0.696 ± 0.0079
16,APSPPPRISAWL,0.749 ± 0.045
17,APSPSPPPPLPN,0.685 ± 0.058
18,APSQGPSRPGVV,0.708 ± 0.038
19,APTPACTRPSVA,0.693 ± 0.033
20,APTPPPVLLTPP,0.6694 ± 0.0063
21,APTRPPRPNLFH,0.625 ± 0.018
22,APVGTPARPSLS,0.725 ± 0.016
23,APVLSVSFFSFL,0.718 ± 0.013
24,AQPGRLHLSCES,0.688 ± 0.052
25,ARAAQPVHFLNL,0.715 ± 0.059

row,Sequence,protein stability index
1,ARAPPLPPPPAL,0.698 ± 0.0076
2,ARGARTCDLIRW,0.717 ± 0.035
3,ARLHIPSLLPAS,0.6798 ± 0.0057
4,ARPLPPSLPPPP,0.7356 ± 0.0046
5,ARPVSRWCEASY,0.645 ± 0.025
6,ARQSVYNDLVYV,0.582 ± 0.0065
7,ARRPHSPLCTTR,0.7101 ± 0.00075
8,ARRTSAGVWCTA,0.705 ± 0.04
9,ARSLPSPTLPFL,0.697 ± 0.058
10,ARSQTGRTYFSP,0.694 ± 0.062
11,ARTRRPTPGRPI,0.719 ± 0.066
12,ARVAFARLPNVC,0.66 ± 0.016
13,ARVIISGYWILY,0.519 ± 0.048
14,ARVRAQIRDGRT,0.6403 ± 0.0021
15,ASEKFGIMSTML,0.662 ± 0.045
16,ASGSLGQIFSGL,0.699 ± 0.026
17,ASHPESHIAWPA,0.691 ± 0.03
18,ASLLSCRLPCLC,0.518 ± 0.026
19,ASPFGFLFCCGG,0.654 ± 0.025
20,ASPLFPLPPPPP,0.71 ± 0.004
21,ASPPPEVCLSHR,0.682 ± 0.0092
